Assay results taken from patent publication US11407840B2, “Antibodies to M(H)DM2/4 and their use in diagnosing and treating cancer” (NomoCan Pharmaceuticals LLC, priority 2017, dated 2022).

B1: NMC-204: mouse monoclonal antibody, IgG3 isotype, binds NMC-P2 (SEQ ID NO:2); VH SEQ ID NO:38, VL SEQ ID NO:39 (antibody, V domains shown)
VH: EVQLQESGSVLVRPGASVKLSCKASGDTLSGSWMHWAMQRPGQGLEWIGEIHLNRGTTNYNEKFKGKATVTVDTSSSTAYVDLSSLTSEDSAVYYCARSPGFAYWGQGTLVTVSA
VL: GIVMTQAAPSVPVTPGESVSISCRSSKSLLHSNGNSYLYWFLQRPGQSPQLLIYRMSNLASGVPDRFSGSGSGTAFTLRITRVEAEDVGVYYCMQHLEYPFTFGSGTKLEIK
modifications: mAb NMC-204 Heavy Chain Variable Region; mAb NMC-204 Light Chain Variable Region
B2: NMC-103: mouse monoclonal antibody, IgG1 isotype, binds NMC-P1 (SEQ ID NO:1); VH SEQ ID NO:36, VL SEQ ID NO:37 (antibody, V domains shown)
VH: EVQLQESGGGLVQPGGSLRLSCTTSGFTFTHYYMSWVRQPPGKALEWLGFIRNKAKGYTAEYSASVKGRFTISRDNSQSILYLQMNTLRPEDSATYYCARDIGDNWGQGTLVTVSS
VL: DIVMTQAAFSNPVTLGTSASISCRSSKNLLHSNGITYLYWYLQRPGQSPQLLISRVSNLASGVPNRFSGSESGTDFTLRISRVEAEDVGVYFCAQLLELPYTFGGGTKLEIK
modifications: mAb NMC-103 Heavy Chain Variable Region; mAb NMC-103 Light Chain Variable Region

Experiments:
[1] = system: mouse Lewis Lung cancer LL/2 cells (subcutaneous tumors); assay: LL/2 syngeneic mouse model of lung cancer; format: in vivo, mouse (C57BL/6); conditions: day 21; 0.4 mg/kg i.p. 3 times a week for 3 weeks, started with tumor cell inoculation; FIG. 16
Experimental: Methodology used (Syngeneic Mouse Models of lung, colon and pancreatic cancer): To investigate the anti-tumor effects of HDM2-specific antibodies on lung, colon and pancreatic tumors in vivo, three well-known syngeneic mouse models of lung, colon and pancreatic cancer were used (Sharma et al, 1999, J. Immunol. 163 (9):5020-5028; McIntyre, 2015, Bioassays 37(8):909-920; Li, et al, 2015, Sci. Rep. 5:7856). Subcutaneous tumors were prepared by implanting either mouse Lewis Lung cancer LL/2 cells (2.5×10^5 cells/mouse), mouse colon cancer MC-38 cells (5×10^5 cells/mouse) or mouse pancreatic cancer Panc-2 cells (2×10^6 cells/mouse) in the right flanks of 8-week-old female C57BL/6 mice (n=6-7). The mice were returned to their respective cages after tumor implantation. From day 7 after tumor implantation, the tumor volumes were measured 2 times/week with a digital caliper. In the case of MC-38 and Panc-2 study, treatment started when the tumors reached an average of 70-80 mm^3. In the case of LL/2 study, tumor cell inoculation and treatment were initiated simultaneously. Mice were micro-chipped and registered following tumor implantation. […]

[2] = target: NMC-P3 peptide (SEQ ID NO:3), amino acids 475-491 of HDM2 (Homo sapiens, UniProt Q00987); assay: Peptide-ELISA, NMC-P3 peptide; format: binding; conditions: 5 μg/ml peptide dried on plate; OD 450 nm
Experimental: Peptide-ELISA Methodology: 5 μg/ml of NMC-P1, NMC-P2 or NMC-P3 peptide antigen was dried onto a 96-well ELISA plate overnight. Plates were then blocked with 5% BSA in 1× phosphate-buffered saline (PBS) (100 ? /well) for 2 hours at room temperature. Microplate wells were then washed 5 times with 300 ? of ice cold 1× PBS. Appropriate dilutions of monoclonal antibodies NMC-103, NMC-204 or NMC-303 in 1% bovine serum albumin (BSA) in PBS solution were then incubated with their corresponding peptides (NMC-P1, NMC-P2 or NMC-P3, respectively) at room temperature. After 2 hours, wells were washed 5 times with 300 ? ? ice-cold PBS/well and 100 ? secondary antibody (HRP-labeled Goat anti-Mouse F(ab′)2 H&L cross-adsorbed secondary antibody (HRP-GaM F(ab′)2), ThermoFisher, Cat. No. A24524) diluted 1:2500 to 1:5000 in PBS-1% BSA solution were added and the incubation continued at room temperature. After 1 hour, the wells were washed again 5 times with 200 ? of ice-cold PBS and 50 μiL of the TMB Substrate Solution (1-StepTM Ultra TMB-ELISA, ThermoFisher, Cat. No. 34028) were added to each well and color was allowed to develop for 30 minutes at room temperature. The reaction was stopped by addition of 50 μ ? ? of stop solution (ThermoFisher, Cat. No. SSO4) to each well and absorbance of each well was read immediately for optical density (OD) at 450 nm.

[3] = system: Human pancreatic cancer MIAPaCa-2 cells; assay: Complement-mediated cytotoxicity (CDC) with normal human serum, PI staining; format: cell-based; conditions: antibody 30 μg/ml; NHS 1:10; 2 hours; FIG. 13
Experimental: Methodology used: Cells seeded in 24-well dishes were grown overnight at 37° C. in a humidified atmosphere supplied with 5% CO2-95% air mixture. The following day the cells were thoroughly washed with ice-cold PBS and incubated with HDM2-specific mAb NMC-103 diluted in culture medium containing 1% BSA to a final antibody concentration of 30 μg/ml. After 30 min, NHS was added to the cells at a final concentration of 1:10 in the culture medium with 1%) BSA together with 1% propidium iodide (PI) solution. Cells were then incubated with NHS for 2 hours and images were taken using EVOS FL fluorescent microscope (Life Technologies).

Molecule	tumor volume [1] [mm^3]	binding to NMC-P3 peptide (peptide-ELISA) [2]	complement-mediated cytotoxicity (nuclear uptake of Propidium Iodide) [3]
B1	1446	did not bind	–
B2	–	–	triggered complement-mediated cytotoxicity
